Test results taken from patent US8734776B2 (ZymoGenetics, Inc., priority 2003, dated 2014).
Like-named read-outs stand apart in the source and are kept apart here.

Legend:
[1] = tested on: ISG gene expression (OAS, Pkr, Mx1); assay: ISG gene induction in liver, spleen and blood of injected mice; format: in vivo, mouse; conditions: for OAS (24 hr): mice, expression relative to internal HPRT; for OAS- 1 hr: 1 hr after single injection of 250 μg i.v.; for OAS- 1 hr / OAS-6 hr / OAS-24 hr / OAS-48 hr: average of 5 animals; for OAS-6 hr: 6 hr after single injection of 250 μg i.v.; for OAS-24 hr: 24 hr after single injection of 250 μg i.v.; for OAS-48 hr: 48 hr after single injection of 250 μg i.v.
Protocol: In addition, E. coli derived IL-29 was also tested in in vivo assays as described above using MetIL-29C172S-PEG and MetIL-29-PEG. At various time points and at different doses, ISG gene induction was measured in the blood, spleen and livers of the mice.
Mice were sacrificed at various time points (1 hr-48 hr). Spleens and livers were isolated from mice, and RNA was isolated. RNA was also isolated from the blood cells. The cells were pelleted and RNA isolated from pellets using RNAEasy®-kit (Qiagen). RNA was treated with DNase (Amicon) to rid RNA of any contaminating DNA. cDNA was generated using Perkin-Elmer RT mix (Perkin-Elmer). ISG gene induction was measured by real-time PCR using primers and probes specific for mouse OAS, Pkr and M×1. To obtain quantitative data, HPRT real-time PCR was duplexed with ISG PCR. A standard curve was calculated using known amounts of IFN-stimulated mouse PBLs. All data are shown as expression relative to internal HPRT expression.
Results shown are fold expression relative to HPRT gene expression. […] The data shown is the average expression from 5 different animals/group.
Data shown is fold expression over HPRT expression from livers of mice. Similar data was obtained from blood and spleens of mice.

influenza virus [2] = format: cell-based; conditions: Influenza (type A [H3N2])
BVDV = BVDV CPE inhibition assay in MDBK cells; format: cell-based; conditions: MDBK bovine kidney cells
Protocol: IFNα and RIBAVIRIN® were used as positive controls. Test sample were added at the time of viral infection.

EMCV = EMCV antiviral dye-uptake assay in HepG2 cells; format: cell-based, human; conditions: dye-uptake OD570
influenza virus [3] = format: cell-based; conditions: Influenza (type A [H3N2]); remark: listed apart in the source
adenoviral vector, AdGFP = assay: Adenoviral (AdGFP) liver pathology in mice; format: in vivo, mouse; conditions: C57Bl/6 mice
Protocol: When injected intravenously, these viruses primarily target the liver for gene expression. The adenoviruses are replication deficient, but cause liver damage due to inflammatory cell infiltrate that can be monitored by measurement of serum levels of liver enzymes like AST and ALT, or by direct examination of liver pathology.
C57B116 mice were given once daily intraperitoneal injections of 50 μg mouse IL-28 (zcyto24 as shown in SEQ ID NO:8) or metIL-29C172S—PEG for 3 days. Control animals were injected with PBS. One hour following the 3rd dose, mice were given a single bolus intravenous tail vein injection of the adenoviral vector, AdGFP (1×10^9 plaque-forming units (pfu)). Following this, every other day mice were given an additional dose of PBS, mouse IL-28 or metIL-29C172S—PEG for 4 more doses (total of 7 doses). One hour following the final dose of PBS, mouse IL-28 or metIL-29C172S—PEG mice were terminally bleed and sacrificed. The serum and liver tissue were analyzed. Serum was analyzed for AST and ALT liver enzymes. Liver was isolated and analyzed for GFP expression and histology. For histology, liver specimens were fixed in formalin and then embedded in paraffin followed by H&E staining. Sections of liver that had been blinded to treat were examined with a light microscope. Changes were noted and scored on a scale designed to measure liver pathology and inflammation.

adenovirus = format: cell-based; conditions: A549 cells
[4] = Maden-Darby Canine Kidney cells

B1: IL-29: human IL-29, previously designated zcyto21, SEQ ID NO:4 (protein, listed as Homo sapiens)
chain: MAAAWTVVLVTLVLGLAVAGPVPTSKPTTTGKGCHIGRFKSLSPQELASFKKARDALEESLKLKNWSCSSPVFPGNWDLRLLQVRERPVALEAELALTLKVLEAAAGPALEDVLDQPLHTLHHILSQLQACIQPQPTAGPRPRGRLHHWLHRLQEAPKKESAGCLEASVTFNLFRLLTRDLKYVADGNLCLRTSTHPEST
modifications: SIGNAL (1)...(19)
time of peak expression of ISGs after injection ([1]; C57BL/6 mice): 1 to 6 h
ISG gene expression (OAS, Pkr, Mx1) in the livers, spleen and blood of mice ([1]; C57BL/6 mice, i.p or i.v, 10 μg-250 μg): induced ISG gene expression
OAS (24 hr) ([1]; injection 10 μg): 3.7
OAS (24 hr) ([1]; injection 50 μg): 4.2
OAS (24 hr) ([1]; injection 250 μg): 6
OAS- 1 hr ([1]; mouse blood): 12 fold expression relative to HPRT gene expression
OAS-6 hr ([1]; mouse blood): 18 fold expression relative to HPRT gene expression
OAS-24 hr ([1]; mouse blood): 11 fold expression relative to HPRT gene expression
OAS-48 hr ([1]; mouse blood): 10 fold expression relative to HPRT gene expression
OAS- 1 hr ([1]; mouse liver): 2.5 fold expression relative to HPRT gene expression
OAS-6 hr ([1]; mouse liver): 4 fold expression relative to HPRT gene expression
OAS-24 hr ([1]; mouse liver): 2.5 fold expression relative to HPRT gene expression
OAS-48 hr ([1]; mouse liver): 2.8 fold expression relative to HPRT gene expression
OAS- 1 hr ([1]; mouse spleen): 4 fold expression relative to HPRT gene expression
OAS-6 hr ([1]; mouse spleen): 6 fold expression relative to HPRT gene expression
OAS-24 hr ([1]; mouse spleen): 3.2 fold expression relative to HPRT gene expression
OAS-48 hr ([1]; mouse spleen): 3.2 fold expression relative to HPRT gene expression
EC50 Visual (influenza virus [2]; [4]): >10 µg/mL
IC50 Visual (influenza virus [2]; [4]): >10 µg/mL
EC50 Visual (influenza virus [2]; Vero cells): >10 µg/mL
IC50 Visual (influenza virus [2]; Vero cells): >10 µg/mL
IC50 inhibition of cell death induced by BVDV (BVDV): 0.19 µg/mL
EC50 antiviral activity (EMCV): 0.0006 µg/mL
EC50 NR (influenza virus [3]; [4]): >10 µg/mL
IC50 NR (influenza virus [3]; [4]): >10 µg/mL
EC50 NR (influenza virus [3]; Vero cells): 2 µg/mL
IC50 NR (influenza virus [3]; Vero cells): >10 µg/mL
liver histology: liver and inflammation scores versus PBS-treated group (adenoviral vector, AdGFP): lower liver and inflammation scores
liver histology: sinusoidal cells, mitotic figures, hepatocyte changes versus PBS treatment group (adenoviral vector, AdGFP): less proliferation of sinusoidal cells, fewer mitotic figures and fewer changes in the hepatocytes
average serum AST (adenoviral vector, AdGFP; 50 μg i.p., 7 doses, n=8): 162 U/L
serum ALT (adenoviral vector, AdGFP; 50 μg i.p., 7 doses, n=8): 184 U/L
EC50 Visual (adenovirus): >10 µg/mL
IC50 Visual (adenovirus): >10 µg/mL
